# Key:
# [1] = biological target: recombinant human CD47-Fc (ACROBiosystems, catalog number CD7-H52A5) (human, UniProt Q08722 19-139); experiment: competition ELISA; blocking CD47/SIRPα
# [2] = biological target: human CD47 (ACROBiosystems, catalog number CD7-H5227) (human, UniProt Q08722 19-139); experiment: ELISA
# [3] = biological target: T1, human PD-L1-Fc (ACROBiosystems, catalog number PD1-H5258) (human, UniProt Q9NZQ7 19-238); experiment: competition ELISA; blocking PD-L1/CD80
# [4] = biological target: T1, human PD-L1-Fc (ACROBiosystems, catalog …); experiment: competition ELISA; blocking PD-L1/PD-1
# [5] = biological target: recombinant human PD-L1 (Sino Biological Inc., catalog number 10084-H08H) (human, UniProt Q9NZQ7 19-239); experiment: ELISA
# recombinant human PD-L1 (Sino Biological Inc., catalog number 10084-H08H), sequence (Q9NZQ7 19-239): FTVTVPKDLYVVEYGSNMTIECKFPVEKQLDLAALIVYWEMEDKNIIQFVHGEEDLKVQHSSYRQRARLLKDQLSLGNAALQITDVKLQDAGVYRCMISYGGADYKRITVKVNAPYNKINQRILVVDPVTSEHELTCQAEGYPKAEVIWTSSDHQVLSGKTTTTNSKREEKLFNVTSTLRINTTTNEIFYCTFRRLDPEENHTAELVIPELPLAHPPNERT
# human CD47 (ACROBiosystems, catalog number CD7-H5227), sequence (Q08722 19-139): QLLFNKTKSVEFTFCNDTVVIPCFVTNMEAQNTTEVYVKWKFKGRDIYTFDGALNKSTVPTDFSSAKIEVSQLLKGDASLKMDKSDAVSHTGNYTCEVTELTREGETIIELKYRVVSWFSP
# recombinant human CD47-Fc (ACROBiosystems, catalog number CD7-H52A5), sequence (Q08722 19-139): as above
# T1 sequence (Q9NZQ7 19-238): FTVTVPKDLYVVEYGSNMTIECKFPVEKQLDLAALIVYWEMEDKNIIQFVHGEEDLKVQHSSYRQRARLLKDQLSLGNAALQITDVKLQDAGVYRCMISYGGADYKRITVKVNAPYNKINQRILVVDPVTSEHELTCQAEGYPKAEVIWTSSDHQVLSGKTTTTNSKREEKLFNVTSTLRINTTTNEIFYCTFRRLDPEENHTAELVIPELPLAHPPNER
EC50 [1] [nM],EC50 [2] [nM],EC50 [3] [nM],EC50 [4] [nM],EC50 [5] [nM],Binder
2.26,0.094,,,,"CD47 monoclonal antibody (heavy and light chain variable region sequences of the humanized sequences z11 of the antibody CD47-18-5 and the constant region … (antibody, V domains shown) VH: QVQLVQSGAEVKKPGSSVKVSCKASGFNIEDIYMHWVRQAPGQGLEWMGRIDPANDNTKYGPKLQGRVTITADTSTNTAYMELSSLRSEDTAVYYCVRRIPTDIMDYWGQGTTVTVSS VL: DIQMTQSPSSLSASVGDRVTITCKASQNVRTSIAWYQQKPGKAPKTLIYLASNRHTGVPSRFSGSGSGTEFTLTISNLQPEDFATYYCLQHWNYPFTFGQGTKLEIK"
6.12,0.491,1.29,1.5,0.251,anti-PD-L1/anti-CD47 heterodimeric antibody BH3016 (bispecific antibody) heavy 1: EVQLVQSGAEVKKPGSSVKVSCKASGFNIEDTYIHWVRQAPGQGLEWMGRIDPANANTKYDPKFQGRVTITADTSTNTAYMELSSLRSEDTAVYYCGRGLGAWFAYWGQGTLVTVSS light 1: DIQMTQSPSSLSASVGDRVTITCKASQDVHTAVAWIQQKPGKSPKLLIYSASNRYTGVPSRFSGSGSGTDFTFTISSLQPEDIATYYCQQHYITPLTFGQGTKLEIKRTVAAPSVFIFPPSDEQLKSGTASVVCLLNNFYPREAKVQWKVDNALQSGNSQESVTEQDSKDSTYSLSSTLTLSKADYEKHKVYACEVTHQGLSSPVTKSFNRGEC heavy 2: QVQLVQSGAEVKKPGSSVKVSCKASGFNIEDIYMHWVRQAPGQGLEWMGRIDPANDNTKYGPKLQGRVTITADESTSTAYMELSSLRSEDTAVYYCVRRIPTDIMDYWGQGTTVTVSSASTKGPSVFPLAPSSKSTSGGTAALGCLVKDYFPEPVTVSWNSGALTSGVHTFPAVLQSSGLYSLSSVVTVPSSSLGTQTYICNVNHKPSNTKVDKKVEPKSCDKTHTCPPCPAPELLGGPSVFLFPPKPKDTLMISRTPEVTCVVVDVSHEDPEVKFNWYVDGVEVHNAKTKPREEQYASTYRVVSVLTVLHQDWLNGKEYKCKVSNKALPAPIEKTISKAKGQPREPQVYTEPPSRDELTKNQVSLTCLVKGFYPSDIAVEWESNGQPENNYKTTPPVLDSDGSFFLLSVLTVDKSRWQQGNVFSCSVMHEALHNHYTQKSLSLSPGK light 2: DIQMTQSPSSLSASVGDRVTITCKASQNVRTSIAWYQQKPGKAPKTLIYLASNRHTGVPSRFSGSGSGTEFTLTISNLQPEDFATYYCLQHWNYPFTFGQGTKLEIKRTVAAPSVFIFPPSDEQLKSGTASVVCLLNNFYPREAKVQWKVDNALQSGNSQESVTEQDSKDSTYSLSSTLTLSKADYEKHKVYACEVTHQGLSSPVTKSFNRGEC
12.8,2.49,1.97,1.67,0.262,anti-PD-L1/anti-CD47 heterodimeric antibody BH3015 (bispecific antibody) heavy 1: EVQLVQSGAEVKKPGSSVKVSCKASGFNIEDTYIHWVRQAPGQGLEWMGRIDPANANTKYDPKFQGRVTITADTSTNTAYMELSSLRSEDTAVYYCGRGLGAWFAYWGQGTLVTVSS light 1: DIQMTQSPSSLSASVGDRVTITCKASQDVHTAVAWIQQKPGKSPKLLIYSASNRYTGVPSRFSGSGSGTDFTFTISSLQPEDIATYYCQQHYITPLTFGQGTKLEIKRTVAAPSVFIFPPSDEQLKSGTASVVCLLNNFYPREAKVQWKVDNALQSGNSQESVTEQDSKDSTYSLSSTLTLSKADYEKHKVYACEVTHQGLSSPVTKSFNRGEC heavy 2: QVQLVQSGAEVKKPGSSVKVSCKASGFNIEDIYMHWVRQAPGQGLEWMGRIDPANDNTKYGPKLQGRVTITADTSTSTAYMELSSLRSEDTAVYYCVRRIPTDIMDYWGQGTTVTVSSASTKGPSVFPLAPSSKSTSGGTAALGCLVKDYFPEPVTVSWNSGALTSGVHTFPAVLQSSGLYSLSSVVTVPSSSLGTQTYICNVNHKPSNTKVDKKVEPKSCDKTHTCPPCPAPELLGGPSVFLFPPKPKDTLMISRTPEVTCVVVDVSHEDPEVKFNWYVDGVEVHNAKTKPREEQYASTYRVVSVLTVLHQDWLNGKEYKCKVSNKALPAPIEKTISKAKGQPREPQVYTEPPSRDELTKNQVSLTCLVKGFYPSDIAVEWESNGQPENNYKTTPPVLDSDGSFFLLSVLTVDKSRWQQGNVFSCSVMHEALHNHYTQKSLSLSPGK light 2: DIQMTQSPSSLSASVGDRVTITCKASQNVRTSIAWYQQKPGKAPKRLIYLASNRHTGVPSRFSGSGSGTEFTLTISNLQPEDFATYYCLQHWNYPFTFGQGTKLEIKRTVAAPSVFIFPPSDEQLKSGTASVVCLLNNFYPREAKVQWKVDNALQSGNSQESVTEQDSKDSTYSLSSTLTLSKADYEKHKVYACEVTHQGLSSPVTKSFNRGEC
4.73,0.134,1.78,1.54,0.261,anti-PD-L1/anti-CD47 heterodimeric antibody BH3012h (bispecific antibody) heavy 1: EVQLVQSGAEVKKPGSSVKVSCKASGFNIEDTYIHWVRQAPGQGLEWMGRIDPANANTKYDPKFQGRVTITADTSTNTAYMELSSLRSEDTAVYYCGRGLGAWFAYWGQGTLVTVSS light 1: DIQMTQSPSSLSASVGDRVTITCKASQDVHTAVAWIQQKPGKSPKLLIYSASNRYTGVPSRFSGSGSGTDFTFTISSLQPEDIATYYCQQHYITPLTFGQGTKLEIKRTVAAPSVFIFPPSDEQLKSGTASVVCLLNNFYPREAKVQWKVDNALQSGNSQESVTEQDSKDSTYSLSSTLTLSKADYEKHKVYACEVTHQGLSSPVTKSFNRGEC heavy 2: QVQLVQSGAEVKKPGSSVKVSCKASGFNIEDIYMHWVRQAPGQGLEWMGRIDPANDNTKYGPKLQGRVTITADTSTNTAYMELSSLRSEDTAVYYCVRRIPTDIMDYWGQGTTVTVSSASTKGPSVFPLAPSSKSTSGGTAALGCLVKDYFPEPVTVSWNSGALTSGVHTFPAVLQSSGLYSLSSVVTVPSSSLGTQTYICNVNHKPSNTKVDKKVEPKSCDKTHTCPPCPAPELLGGPSVFLFPPKPKDTLMISRTPEVTCVVVDVSHEDPEVKFNWYVDGVEVHNAKTKPREEQYASTYRVVSVLTVLHQDWLNGKEYKCKVSNKALPAPIEKTISKAKGQPREPQVYTEPPSRDELTKNQVSLTCLVKGFYPSDIAVEWESNGQPENNYKTTPPVLDSDGSFFLLSVLTVDKSRWQQGNVFSCSVMHEALHNHYTQKSLSLSPGK light 2: DIQMTQSPSSLSASVGDRVTITCKASQNVRTSIAWYQQKPGKAPKTLIYLASNRHTGVPSRFSGSGSGTEFTLTISNLQPEDFATYYCLQHWNYPFTFGQGTKLEIKRTVAAPSVFIFPPSDEQLKSGTASVVCLLNNFYPREAKVQWKVDNALQSGNSQESVTEQDSKDSTYSLSSTLTLSKADYEKHKVYACEVTHQGLSSPVTKSFNRGEC
802,68.4,1.5,1.63,0.234,anti-PD-L1/anti-CD47 heterodimeric antibody BH3014 (bispecific antibody) heavy 1: EVQLVQSGAEVKKPGSSVKVSCKASGFNIEDTYIHWVRQAPGQGLEWMGRIDPANANTKYDPKFQGRVTITADTSTNTAYMELSSLRSEDTAVYYCGRGLGAWFAYWGQGTLVTVSS light 1: DIQMTQSPSSLSASVGDRVTITCKASQDVHTAVAWIQQKPGKSPKLLIYSASNRYTGVPSRFSGSGSGTDFTFTISSLQPEDIATYYCQQHYITPLTFGQGTKLEIKRTVAAPSVFIFPPSDEQLKSGTASVVCLLNNFYPREAKVQWKVDNALQSGNSQESVTEQDSKDSTYSLSSTLTLSKADYEKHKVYACEVTHQGLSSPVTKSFNRGEC heavy 2: QVQLVQSGAEVKKPGSSVKVSCKASGFNIEDIYMHWVRQAPGQGLEWMGRIDPANDNTKYGPKLQGRVTITADESTNTAYMELSSLRSEDTAVYYCARRIPTDIMDYWGQGTTVTVSSASTKGPSVFPLAPSSKSTSGGTAALGCLVKDYFPEPVTVSWNSGALTSGVHTFPAVLQSSGLYSLSSVVTVPSSSLGTQTYICNVNHKPSNTKVDKKVEPKSCDKTHTCPPCPAPELLGGPSVFLFPPKPKDTLMISRTPEVTCVVVDVSHEDPEVKFNWYVDGVEVHNAKTKPREEQYASTYRVVSVLTVLHQDWLNGKEYKCKVSNKALPAPIEKTISKAKGQPREPQVYTEPPSRDELTKNQVSLTCLVKGFYPSDIAVEWESNGQPENNYKTTPPVLDSDGSFFLLSVLTVDKSRWQQGNVFSCSVMHEALHNHYTQKSLSLSPGK light 2: DIQMTQSPSSLSASVGDRVTITCKASQNVRTSIAWYQQKPGKAPKRLIYLASNRHTGVPSRFSGSGSGTEFTLTISNLQPEDFATYYCLQHWNYPFTFGQGTKLEIKRTVAAPSVFIFPPSDEQLKSGTASVVCLLNNFYPREAKVQWKVDNALQSGNSQESVTEQDSKDSTYSLSSTLTLSKADYEKHKVYACEVTHQGLSSPVTKSFNRGEC

# Reference: patent publication US20240052037A1 (published 2024)
